# Measured values taken from patent US7138249B2, “Screening method” (Takeda Pharmaceutical Company Limited, priority 2000, dated 2006).
# Target: T1, TGR-1-expressing CHO cells (Homo sapiens, UniProt Q9GZQ4, A395T)
# T1 construct: expressed in transfected cells; host or cells: CHO cells
# Test: Site sensor assay of extracellular acidification rate in TGR-1-expressing CHO cells versus mock CHO cells
# Type: cell-based
# Conditions: exposed to the cells for 7 minutes and 2 seconds; step-wise decreased concentrations; compared with mock CHO cells; 3 cycles before exposure set as 100%
# Method: In the site sensor assay, pig Neuromedin U-8 at the concentrations indicated in FIG. 1 was reacted to TGR-1-expressing CHO cells (●) and mock CHO cells (◯) for 7 minutes and 2 seconds. The maximum of acidification rate during the reaction was plotted.
# [10] TGR-1-expressing cells changes extracellular pH (acidification rate) in response to Neuromedin U. By measuring such change with a site sensor device (Molecular Device), the activity of Neuromedin U can be measured. The details of screening method for the compound that alters the binding between Neuromedin U and TGR-1 by measuring the extracellular pH change with the site sensor device are as follows.
# TGR-1-expressing cells are cultivated in a capsule of the site sensor over night. […] After the pH becomes stable, measured is the pH change of the medium caused by refluxing the medium containing Neuromedin U or Neuromedin U and a test compound on the cells. An influence of the compound that alter the binding of Neuromedin U and TGR-1 can be measured by comparing the change of extracellular pH in TGR-1-expressing cells with that by the single administration of Neuromedin U. The compound that inhibits the change of extracellular pH by administrating Neuromedin U can be selected as a candidate substance that is capable of altering the binding property between Neuromedin U and TGR-1. […]
# T1 sequence (Q9GZQ4 whole entry A395T): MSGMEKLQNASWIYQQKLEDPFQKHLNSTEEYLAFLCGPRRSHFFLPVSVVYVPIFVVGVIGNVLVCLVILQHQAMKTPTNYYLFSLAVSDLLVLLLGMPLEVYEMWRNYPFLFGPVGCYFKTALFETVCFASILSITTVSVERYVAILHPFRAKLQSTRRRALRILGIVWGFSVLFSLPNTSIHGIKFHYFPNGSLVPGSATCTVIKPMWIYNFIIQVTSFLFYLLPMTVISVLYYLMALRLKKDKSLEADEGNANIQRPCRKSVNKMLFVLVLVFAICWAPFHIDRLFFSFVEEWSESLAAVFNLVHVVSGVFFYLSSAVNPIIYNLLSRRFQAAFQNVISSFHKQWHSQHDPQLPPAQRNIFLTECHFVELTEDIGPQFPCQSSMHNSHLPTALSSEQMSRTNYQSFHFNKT
substance,measurement,value
"Pig Neuromedin U-8: Pig Neuromedin U-8 peptide of 8 amino acid residues (BACHEM, H-5505, SEQ ID NO:5), ligand of TGR-1","TGR-1 receptor-specific cell-stimulating activity (peak acidification rate, rate of change in extracellular pH)",reacted to Neuromedin U in a specific and does-dependent manner
